Laboratory results published in patent US20240279630, “ISOLATED CAS13 PROTEIN AND USE THEREOF” (GUANGZHOU REFORGENE MEDICINE CO., LTD., published 2024).

How the values were obtained:
Test in all cases: cell_activity; reversed DR/guide order
Conditions in all cases: tags: NLS fusion
Cas13m.2 = molecular target: T1, Cas13m.2 (metagenome)
T1 chain: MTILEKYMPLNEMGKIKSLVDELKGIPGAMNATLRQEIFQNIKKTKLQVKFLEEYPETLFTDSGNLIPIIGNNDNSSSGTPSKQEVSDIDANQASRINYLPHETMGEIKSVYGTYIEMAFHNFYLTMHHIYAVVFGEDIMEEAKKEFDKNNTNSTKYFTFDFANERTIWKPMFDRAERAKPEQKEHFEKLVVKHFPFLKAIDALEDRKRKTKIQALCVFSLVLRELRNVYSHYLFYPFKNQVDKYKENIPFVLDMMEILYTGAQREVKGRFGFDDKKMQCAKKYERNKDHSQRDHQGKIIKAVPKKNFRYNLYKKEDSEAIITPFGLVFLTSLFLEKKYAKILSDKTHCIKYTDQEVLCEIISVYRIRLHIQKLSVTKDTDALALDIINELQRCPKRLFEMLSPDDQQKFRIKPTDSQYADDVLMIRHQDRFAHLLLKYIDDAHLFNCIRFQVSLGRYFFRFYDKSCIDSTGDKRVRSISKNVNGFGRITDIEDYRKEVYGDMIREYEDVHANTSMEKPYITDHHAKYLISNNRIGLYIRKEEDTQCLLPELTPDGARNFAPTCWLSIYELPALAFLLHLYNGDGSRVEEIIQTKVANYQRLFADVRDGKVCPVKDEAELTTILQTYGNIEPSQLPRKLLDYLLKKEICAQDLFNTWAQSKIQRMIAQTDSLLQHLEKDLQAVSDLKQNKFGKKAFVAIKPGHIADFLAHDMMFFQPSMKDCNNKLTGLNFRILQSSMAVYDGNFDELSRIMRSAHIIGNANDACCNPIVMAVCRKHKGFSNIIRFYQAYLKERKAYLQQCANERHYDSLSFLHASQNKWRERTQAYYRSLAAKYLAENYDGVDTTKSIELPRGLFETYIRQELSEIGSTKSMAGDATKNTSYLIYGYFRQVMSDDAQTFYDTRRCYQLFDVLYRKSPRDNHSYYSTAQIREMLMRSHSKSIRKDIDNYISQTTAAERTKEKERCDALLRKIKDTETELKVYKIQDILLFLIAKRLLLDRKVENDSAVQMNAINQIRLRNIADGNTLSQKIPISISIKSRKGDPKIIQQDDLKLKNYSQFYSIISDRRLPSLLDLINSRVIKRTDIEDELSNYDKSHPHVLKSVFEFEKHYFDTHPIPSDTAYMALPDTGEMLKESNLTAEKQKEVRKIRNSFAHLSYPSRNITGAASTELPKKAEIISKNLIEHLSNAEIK
Description: (§1) 293T-AQp1 cells were transfected with the verification vectors targeting the endogenous gene AQp1 mRNA of Cas13 m.2, Cas13 m.3, Cas13 m.5, CasRfg.2, Cas13 m.2-r, Cas13 m.3-r, Cas13 m.5-r, and CasRfg.2-r, and a control plasmid (which was the same as the verification vector plasmid targeting the endogenous gene AQp1 mRNA of CasRx in the aforementioned Example 5) at 800 ng in a 24-well plate. The negative control group was transfected with the CasRx-BpiI plasmid in the aforementioned Example 5.
(§2) The transfection method was as follows: [0296] 1. The cells were digested by trypsin (0.25% of Trypsin, EDTA, Thermo, 11058021), counted, and plated into a 24-well plates at 2×10⁵ cells according to 500 uL per well. [0297] 2. For each transfected sample, the complex was prepared according to the following steps: [0298] a. each well of the 24-well plate into which the cells were added, were added with 50 uL of serum-free Opti-MEM I (Thermo, 25200056) reduced serum medium for dilution of the aforementioned plasmid DNA, and mixed gently; [0299] b. it was gently mixed with Lipofectamine 2000 (Thermo, 11668019) before use, and then 1.8 uL of the Lipofectamine 2000 was diluted in each well, i.e., in 50 uL of the Opti-MEM I medium. It was incubated at room temperature for 5 minutes. Note: it was continued to perform step c within 25 minutes; [0300] c. after incubation for 5 minutes, the diluted DNA was combined with the diluted Lipofectamine 2000. They were gently mixed and incubated at room temperature for 20 minutes (the solution might be cloudy visually). Note: the complex was stabilized at room temperature for 6 hours.
(§3) At 72 h after transfection, the cells were subjected to RNA extraction with a SteadyPure Universal RNA Extraction Kit AG21017 kit, and the RNA concentration was detected with an ultramicro spectrophotometer. The RNA product was reverse transcribed by using an Evo M-MLV Mix Kit with gDNA Clean for qPCR AG11728 reverse transcription kit, and the reverse transcribed product was detected by using a SYBR Green Premix Pro Taq HS qPCR Kit (Low Rox Plus) AG11720 qPCR kit.

Cas13m.3 = molecular target: T2, Cas13m.3 (uncultured Bacteroidetes bacterium)
T2 chain: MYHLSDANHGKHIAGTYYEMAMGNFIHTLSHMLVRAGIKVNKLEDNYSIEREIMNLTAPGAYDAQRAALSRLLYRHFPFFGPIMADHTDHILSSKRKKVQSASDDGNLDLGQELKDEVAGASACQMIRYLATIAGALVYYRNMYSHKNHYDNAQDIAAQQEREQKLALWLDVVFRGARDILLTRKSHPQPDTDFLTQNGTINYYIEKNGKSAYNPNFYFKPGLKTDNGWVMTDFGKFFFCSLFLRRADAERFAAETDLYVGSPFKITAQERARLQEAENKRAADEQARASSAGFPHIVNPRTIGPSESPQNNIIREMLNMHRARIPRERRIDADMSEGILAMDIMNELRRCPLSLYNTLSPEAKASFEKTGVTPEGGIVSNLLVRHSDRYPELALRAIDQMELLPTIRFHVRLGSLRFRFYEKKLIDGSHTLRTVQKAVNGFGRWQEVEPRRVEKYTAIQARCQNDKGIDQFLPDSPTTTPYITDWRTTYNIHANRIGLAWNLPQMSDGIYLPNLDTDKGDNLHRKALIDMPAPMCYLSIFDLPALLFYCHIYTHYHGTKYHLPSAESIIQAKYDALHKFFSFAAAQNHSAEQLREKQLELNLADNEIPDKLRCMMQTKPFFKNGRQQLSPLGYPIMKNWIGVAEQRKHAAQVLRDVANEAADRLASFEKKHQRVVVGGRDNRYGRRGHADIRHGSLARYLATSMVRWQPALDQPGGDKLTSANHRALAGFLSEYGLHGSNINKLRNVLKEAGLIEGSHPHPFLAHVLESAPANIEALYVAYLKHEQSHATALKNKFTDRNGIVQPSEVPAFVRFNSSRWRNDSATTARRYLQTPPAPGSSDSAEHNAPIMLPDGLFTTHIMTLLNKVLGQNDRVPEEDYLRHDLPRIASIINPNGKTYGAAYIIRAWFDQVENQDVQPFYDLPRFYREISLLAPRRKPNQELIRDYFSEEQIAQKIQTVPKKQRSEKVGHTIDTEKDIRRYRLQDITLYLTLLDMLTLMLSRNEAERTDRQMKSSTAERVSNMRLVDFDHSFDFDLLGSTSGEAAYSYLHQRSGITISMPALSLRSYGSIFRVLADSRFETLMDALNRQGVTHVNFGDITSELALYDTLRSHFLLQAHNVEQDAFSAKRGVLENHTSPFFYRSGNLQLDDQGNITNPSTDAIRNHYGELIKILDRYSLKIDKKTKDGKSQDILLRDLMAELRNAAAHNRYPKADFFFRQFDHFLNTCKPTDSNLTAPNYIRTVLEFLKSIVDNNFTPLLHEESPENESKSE
Description: as §1, §2, §3

CasRfg.2 (Cas13d) = molecular target: T3, CasRfg.2 (Cas13d) (metagenome)
T3 chain: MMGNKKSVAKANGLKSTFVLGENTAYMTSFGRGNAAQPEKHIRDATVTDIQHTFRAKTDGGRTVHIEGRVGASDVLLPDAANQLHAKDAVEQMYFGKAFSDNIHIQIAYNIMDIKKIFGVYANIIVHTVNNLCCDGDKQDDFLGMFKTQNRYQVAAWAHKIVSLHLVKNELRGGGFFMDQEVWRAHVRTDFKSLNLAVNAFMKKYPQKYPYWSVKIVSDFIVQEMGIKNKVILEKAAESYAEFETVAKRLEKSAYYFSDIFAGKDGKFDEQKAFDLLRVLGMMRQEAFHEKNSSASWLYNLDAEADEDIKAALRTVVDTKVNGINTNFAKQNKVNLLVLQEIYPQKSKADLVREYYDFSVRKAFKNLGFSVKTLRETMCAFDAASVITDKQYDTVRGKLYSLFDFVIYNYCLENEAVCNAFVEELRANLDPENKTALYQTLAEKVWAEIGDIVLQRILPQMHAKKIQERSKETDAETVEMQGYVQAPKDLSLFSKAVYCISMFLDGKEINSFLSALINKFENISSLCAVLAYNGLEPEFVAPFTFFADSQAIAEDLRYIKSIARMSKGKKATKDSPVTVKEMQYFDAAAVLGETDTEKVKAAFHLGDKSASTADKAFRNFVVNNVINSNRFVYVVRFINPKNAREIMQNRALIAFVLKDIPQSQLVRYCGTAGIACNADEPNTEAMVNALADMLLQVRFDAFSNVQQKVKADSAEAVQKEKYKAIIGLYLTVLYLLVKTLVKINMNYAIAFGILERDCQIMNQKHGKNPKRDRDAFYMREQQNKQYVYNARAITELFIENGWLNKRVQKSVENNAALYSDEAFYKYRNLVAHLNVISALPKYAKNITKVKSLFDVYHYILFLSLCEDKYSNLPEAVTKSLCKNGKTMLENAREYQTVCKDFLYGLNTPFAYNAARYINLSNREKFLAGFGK
Description: as §1, §2, §3

Cas13m.5 = molecular target: T4, Cas13m.5 (Bacteroidetes bacterium)
T4 chain: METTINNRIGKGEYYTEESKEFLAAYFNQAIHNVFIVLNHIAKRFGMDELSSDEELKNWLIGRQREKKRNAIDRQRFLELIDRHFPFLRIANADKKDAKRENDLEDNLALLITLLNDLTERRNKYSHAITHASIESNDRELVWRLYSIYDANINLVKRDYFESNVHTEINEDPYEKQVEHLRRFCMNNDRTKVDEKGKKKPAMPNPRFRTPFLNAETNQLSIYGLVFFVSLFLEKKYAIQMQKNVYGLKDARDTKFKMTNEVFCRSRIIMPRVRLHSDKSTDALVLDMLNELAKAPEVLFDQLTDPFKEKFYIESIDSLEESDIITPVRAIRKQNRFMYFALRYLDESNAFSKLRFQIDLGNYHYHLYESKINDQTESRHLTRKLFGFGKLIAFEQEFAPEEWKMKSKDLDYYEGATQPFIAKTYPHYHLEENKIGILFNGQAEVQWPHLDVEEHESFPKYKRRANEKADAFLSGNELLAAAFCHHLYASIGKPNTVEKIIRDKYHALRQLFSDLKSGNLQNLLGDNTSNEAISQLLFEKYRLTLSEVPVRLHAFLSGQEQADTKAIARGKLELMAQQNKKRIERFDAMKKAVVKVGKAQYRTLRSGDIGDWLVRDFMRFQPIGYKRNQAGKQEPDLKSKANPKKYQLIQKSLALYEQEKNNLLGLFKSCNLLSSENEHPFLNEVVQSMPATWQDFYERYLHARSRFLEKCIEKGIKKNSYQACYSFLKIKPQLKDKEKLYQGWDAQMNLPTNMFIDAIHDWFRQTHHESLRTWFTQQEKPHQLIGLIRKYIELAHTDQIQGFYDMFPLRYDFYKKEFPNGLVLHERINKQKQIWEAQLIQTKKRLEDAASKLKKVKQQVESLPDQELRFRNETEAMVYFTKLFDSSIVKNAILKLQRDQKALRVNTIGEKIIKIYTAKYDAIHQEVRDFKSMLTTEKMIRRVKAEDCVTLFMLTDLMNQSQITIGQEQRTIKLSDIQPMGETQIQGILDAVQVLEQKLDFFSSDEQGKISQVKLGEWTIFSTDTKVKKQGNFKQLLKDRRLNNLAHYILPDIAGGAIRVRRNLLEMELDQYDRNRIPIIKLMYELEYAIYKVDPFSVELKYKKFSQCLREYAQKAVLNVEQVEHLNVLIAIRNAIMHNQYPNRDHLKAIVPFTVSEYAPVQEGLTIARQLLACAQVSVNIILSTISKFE
Description: as §1, §2, §3

B1: AQp1 gRNA Cas13m.2-r (DR-guide) ; AQp1 mRNA site (20 nt guide) (ssRNA ; ssRNA)
RNA 1: GUUGUAGAUGACCUCGUUUUGGAGGGGAAACACAACGAAGACAAAGAGGGUCGUGG
RNA 2: CCACGACCCUCUUUGUCUUC
Q: How did the activity (Cas13m.2) turn out when B1 was run?
A: 0.83 relative mRNA level

B2: AQp1 gRNA Cas13m.3-r (DR-guide) ; AQp1 mRNA site (20 nt guide) (ssRNA ; ssRNA)
RNA 1: GUUGUAGAAGCCGUUCAUUCGGGACGGUAUGACAACGAAGACAAAGAGGGUCGUGG
RNA 2: CCACGACCCUCUUUGUCUUC
Q: How did the activity (Cas13m.3) turn out when B2 was run?
A: 0.78 relative mRNA level

B3: AQp1 gRNA CasRfg.2-r (guide-DR) ; AQp1 mRNA site (20 nt guide) (ssRNA ; ssRNA)
RNA 1: GAAGACAAAGAGGGUCGUGGGGUUUUACACCCGUGUAAAACUACACAGUUCUAAAAC
RNA 2: CCACGACCCUCUUUGUCUUC
Q: For B3, which activity (CasRfg.2 (Cas13d)) is on record?
A: 0.67 relative mRNA level

B4: AQp1 gRNA Cas13m.5-r (DR-guide) ; AQp1 mRNA site (20 nt guide) (ssRNA ; ssRNA)
RNA 1: GUUGUGUGUGCCUUUCAAAUUGAAGGCGUUCCCAACGAAGACAAAGAGGGUCGUGG
RNA 2: CCACGACCCUCUUUGUCUUC
Q: With B4 as the binder, how does the activity (Cas13m.5) read?
A: 0.74 relative mRNA level
